Legend:
[1] = molecular target: T1, human CD33-His (extracellular domain Asp 18-His 259) (human, UniProt P20138 18-259); assay: ELISA, antigen coated
T1 construct: range 18-259; bought protein; also called hCD33-his; human CD33 protein; not shown: His tag
Method: (§1) In order to assay the binding activity of VHH-Fc to human CD33 protein, a human CD33-his protein (purchased from ACROBiosystems, Cat. No. CD3-H5226) was diluted with PBS to make a final concentration of 2 μg/mL, and then added into a 96-well ELISA plate at 100 μL/well. The plate was sealed with a plastic film and incubated at 4° C. overnight, washed twice with PBS the next day, and a blocking solution [PBS+2% (w/w) BSA] was added for blocking at room temperature for 2 h. The blocking solution was discarded, and VHH-Fc antibody or negative control antibody serially diluted from 100 nM was added at 50 μL/well. After incubation at 37° C. for 2 h, the plate was washed 3 times with PBS. A secondary antibody labeled with HRP (horseradish peroxidase) (purchased from Sigma, Cat. No. A0170) was added. After incubation for 1 h at 37° C., the plate was washed 5 times with PBS. A TMB substrate was added at 50 μL/well. After incubation at room temperature for 10 min, a stop solution (1.0 N HCl) was added at 50 μL/well. The OD450 nm values were read on an ELISA plate reader (Multimode Plate Reader, EnSight, purchased from Perkin Elmer). The assay results for the binding of the VHH-Fc to hCD33-his by ELISA are shown in FIGS. 7A and 7B and Tables 11 and 12. […] The IgG control was hIgG1, and the data in the table are OD450 nm values.

[2] = molecular target: T1, human CD33-His (extracellular domain …); assay: competitive ELISA vs coated SGN-33 3ug/mL; soluble 25ug/ml
[3] = molecular target: T1, human CD33-His (extracellular domain …); assay: competitive ELISA vs coated S006-NB146-40 2ug/mL; soluble 25ug/ml
Method: (§2) VHH antibodies and control antibodies with known epitopes were subjected to epitope classification with competitive ELISA. ELISA plates were coated with 2 μg/mL antibodies according to the method in Example 5.1; the human CD33-his protein was subjected to a gradient dilution from 30 μg/mL, and EC80 values (Tables 26-27) were calculated. ELISA plates were coated with 2 μg/mL antibodies; after 25 µg/mL of antibodies to be tested were added, a human CD33-his protein having an EC80 concentration corresponding to each of the antibodies to be tested was then added for incubation for 2 h. The plates were washed 5 times with PBS, then HRP-labeled anti-His antibodies (purchased from GenScript, Cat. No. A00612) were added for incubation for 1 h, and the plates were washed 5 times. A TMB substrate was added at 50 μL/well and incubated at room temperature for 10 min, then a stop solution (1.0 M HCl) was added at 50 μL/well. OD_{450 nm} values were read using an ELISA plate reader (Insight, purchased from PerkinElmer), and the competition rate between the antibodies was calculated according to the OD_{450 nm} values using a formula. The results are shown in FIGS. 12A-12B, the higher the value of the competition rate, the closer the epitopes to which two antibodies bind.

monkey CD33-His protein = molecular target: T2, monkey CD33-His protein (monkey); assay: ELISA on coated monkey CD33-his
T2 construct: also called monkey CD33 protein

[4] = molecular target: T1, human CD33-His (extracellular domain …); assay: competitive ELISA vs coated SGN-33 2ug/mL; soluble 25ug/ml
Method: as §2

human CD33-his protein = molecular target: T3, human CD33-his protein (human, UniProt P20138 18-259); assay: competition ELISA, coated human CD33-his, vs Biotin-C33B904 at EC80; antibody 15.63 nM
T3 construct: range 18-259; bought protein; also called hCD33-his; recombinant human CD33-his; not shown: His tag
Method: as §1, with “The” for “In order to assay the binding activity of VHH-Fc to human CD33 protein, a human CD33-his protein (purchased from ACROBiosystems, Cat. No. CD3-H5226) was diluted with PBS to make a final concentration of 2 μg/mL, and then added into a 96-well ELISA plate at 100 μL/well. The”
ELISA plates were coated with 2 μg/mL human CD33-his protein according to the method in Example 5.1; the Biotin-C331B904 antibody was subjected to a gradient dilution from 15 μg/mL, and EC80 values (0.18 μg/mL) were calculated. […] OD_{450 nm} values were read using an ELISA plate reader (Insight, purchased from PerkinElmer). […]

T1 sequence (P20138 18-259 limits assumed): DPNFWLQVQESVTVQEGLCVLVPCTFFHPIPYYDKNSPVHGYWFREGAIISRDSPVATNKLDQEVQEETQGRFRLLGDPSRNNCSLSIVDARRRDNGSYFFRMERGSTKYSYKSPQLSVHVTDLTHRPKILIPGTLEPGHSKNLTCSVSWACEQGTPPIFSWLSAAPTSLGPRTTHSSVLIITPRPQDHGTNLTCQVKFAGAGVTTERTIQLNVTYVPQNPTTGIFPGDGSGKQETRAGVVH
T3 sequence (P20138 18-259 limits assumed): as above

Binder | OD450 at 0.0001 nM [1] [OD450] | OD450 at 0.001 nM [1] [OD450] | OD450 at 0.01 nM [1] [OD450] | OD450 at 0.1 nM [1] [OD450] | OD450 at 1 nM [1] [OD450] | OD450 at 10 nM [1] [OD450] | OD450 at 100 nM [1] [OD450] | inhibition rate [2] [%] | inhibition rate [3] [%] | EC50 (read off the curve) (monkey CD33-His protein) [nM] | inhibition rate [4] [%] | OD450 (Biotin-C33B904 signal) (human CD33-his protein)
C33B904 hIgG1 (antibody, V domains shown, intact human IgG1; variable regions from US20190382481A1; also called C33B3904; C331B904) VH: EVQLVESGGGLVQPGRSLRLSCAASGFTFDDYAMHWVRQAPGKGLEWVSGIGWSGGSIVYADSVKGRFTISRDNAKNSLYLQMNSLRAEDTALYYCAKDSPYGDFFDYWGQGTLVTVSS VL: DIVMTQSPDSLAVSLGERATINCKSSQTVFYSSNNKNYLAWYQQKPGQPPKLLISWASTRKSGVPDRFSGSGSGTDFTLTVSSLQAEDVAVYYCQHYYSTPYTFGQGTKLEIKR | 0.04 | 0.05 | 0.14 | 0.53 | 1.92 | 2.55 | 2.61 | 14 | -5 | ~0.1 | 17 | 
C33B904 (antibody, human IgG1, kappa, V domains shown, control antibody, intact human IgG1 form; variable regions from US20190382481A1; also called C33B904 hIgG1; C331B904) VH: EVQLVESGGGLVQPGRSLRLSCAASGFTFDDYAMHWVRQAPGKGLEWVSGIGWSGGSIVYADSVKGRFTISRDNAKNSLYLQMNSLRAEDTALYYCAKDSPYGDFFDYWGQGTLVTVSS VL: DIVMTQSPDSLAVSLGERATINCKSSQTVFYSSNNKNYLAWYQQKPGQPPKLLISWASTRKSGVPDRFSGSGSGTDFTLTVSSLQAEDVAVYYCQHYYSTPYTFGQGTKLEIKR |  |  |  |  |  |  |  |  |  |  |  | 1.03
